This passage reports Kd results from publication PMC10359615.

This series deals with APE1Dead (catalytically dead APE1) D210N;E96Q (human) (UniProt P27695). The series can be described thus: EMSA. The note with it: EMSA: 50 mM Tris pH 8, 1 mM EDTA, 0.2 mg/ml BSA, 1 mM DTT, 5% sucrose, room temperature, 5 nM DNA, FRET: 20 mM HEPES pH 7.5, 150 mM KCl, 5 mM MgCl2, 5 mM ….
Sequence of APE1Dead (catalytically dead APE1) D210N;E96Q (human) (P27695 whole entry E96Q/D210N): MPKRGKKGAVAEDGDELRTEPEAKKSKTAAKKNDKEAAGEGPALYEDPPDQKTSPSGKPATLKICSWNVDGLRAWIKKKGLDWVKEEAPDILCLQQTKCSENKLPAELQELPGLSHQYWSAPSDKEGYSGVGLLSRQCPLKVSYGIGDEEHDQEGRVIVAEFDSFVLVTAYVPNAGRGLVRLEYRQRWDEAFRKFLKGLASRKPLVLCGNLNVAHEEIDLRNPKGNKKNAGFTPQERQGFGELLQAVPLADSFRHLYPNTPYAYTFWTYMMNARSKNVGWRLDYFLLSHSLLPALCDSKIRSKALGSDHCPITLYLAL

Under “THF abasic analog 7 nt from the 3' ds-ss junction”, “CTCAACACTTAACTA / TGGATGATGACTCTTCTGCGTTCGCTGATGCGCCGACGGTAGTTAAGTGTTGAG [Rec-PTJ, abasic site 7 nt from junction (FAM)]” came in with a Kd of 700 pM.
“CTCAACACTTAACTACCGTCG / TGGATGATGACTCTTCTGCGTTCGCTGATGCGCCGACGGTAGTTAAGTGTTGAG [PTJ, abasic site at junction (FAM)]” registered a Kd (THF abasic analog directly next to the 3' ds-ss junction) of 1200 pM.
For the setting “1 mM EDTA, Kd,app, N11 = tetrahydrofuran abasic analog (THF)”, “GCTGATGCGCNCGACGGATCC [abasic ssDNA 21-mer]” returned a Kd of 22000 pM.
Consider abasic dsDNA, for which the Kd (1 mM EDTA, Kd,app, THF abasic analog) was found to be 400 pM.
